Measured values as given in patent US7314724B2, “Therapeutic applications of laminin and laminin-derived protein fragments” (University of Washington, priority 1996, dated 2008).
Entries after “also recorded” stand apart in the source; their conditions may differ.

Experiments:
Type in all cases: biochemical
Aβ (1-40) = biological target: T1, Aβ (1-40) (Homo sapiens, UniProt P05067); experiment: Thioflavin T fluorometry, Aβ (1-40) amyloid fibril formation; conditions: for dose dependence of inhibition of Aβ fibril formation, in words: 5 nM, 15 nM, 40 nM and 100 nM laminin, 1 week (FIG. 4); for fold inhibition of Aβ (1-40) amyloid fibril formation (fluorescence lower than Aβ alone): 37° C.; for fold decrease of Aβ fibrillogenesis: comparison study (FIG. 3); for inhibition of Aβ fibril formation, in words: dose study (FIG. 4), 3 days and 7 days
T1 construct: 2 μg of Aβ (1-40)(Bachem Inc., Torrance, Calif. USA; Lot #WM365); purchased Bachem Inc., Torrance, Calif; Lot #WM365
T1 sequence (P05067 672-711 limits assumed): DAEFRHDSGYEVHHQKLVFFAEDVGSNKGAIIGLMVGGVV
Experimental: The effects of laminin on Aβ fibrillogenesis was also determined using the previously described method of Thioflavin T fluorometry (Naiki et al, Lab. Invest. 65:104-110, 1991; Levine III, Protein Sci. 2:404-410, 1993; Levine III, Int. J. Exp. Clin. Invest. 2:1-6, 1995; Naiki and Nakakuki, Lab. Invest. 74:374-383, 1996). In this assay, Thioflavin T binds specifically to fibrillar amyloid and this binding produces a fluorescence enhancement at 480 nm that is directly proportional to the amount of amyloid fibrils formed (Naiki et al, Lab. Invest. 65:104-110, 1991; Levine III, Protein Sci. 2:404-410, 1993; Levine III, Int. J. Exp. Clin. Invest. 2:1-6, 1995; Naiki and Nakakuki, Lab. Invest. 74:374-383, 1996). In a first study, the effects of EHS laminin on Aβ (1-40) fibrillogenesis was assessed. For this study, 25 μM of freshly solubilized Aβ (1-40)(Bachem Inc., Torrance, Calif., USA; Lot #WM365) was incubated in microcentrifuge tubes at 37° C. for 1 week (in triplicate), either alone, or in the presence of 100 nM EHS laminin (Sigma Chemical Company, St. Louis, Mo., USA) in 100 mM Tris, 50 mM NaCl, pH 7.0 (TBS). 100 nM of laminin utilized for these studies represented a Aβ:laminin molar ratio of 250:1. 50 μl aliquots were then taken from each tube for analysis at 1 hr, 1 day, 3 days, and 1 week. In a second set of studies, the effects of laminin on Aβ (1 -40) fibril formation was directly compared to other basement membrane components including fibronectin, type IV collagen and perlecan. For these studies, 25 μM of freshly solubilized Aβ (1-40) was incubated in microcentrifuge tubes for 1 week (in triplicate) either alone, or in the presence of 100 nM of EHS perlecan (isolated as previously described)(Castillo et al, J. Biochem. 120:433-444, 1996), fibronectin (Sigma Chemical Company, St. Louis, Mo., USA) or type IV collagen (Sigma Chemical Company, St. Louis, Mo., USA). 50 ul aliquots were then taken for analysis at 1 hour, 1 day, 3 days and 1 week. In a third set of studies, 25 μM of freshly solubilized Aβ (1-40) was incubated in microcentrifuge tubes for 1 week (in triplicate) either alone, or in the presence of increasing concentrations of laminin (i.e. 5 nM, 15 nM, 40 nM and 100 nM). 50 μl aliquots were taken for analysis at 1 hour, 1 day, 3 days and 1 week.
For each determination described above, following each incubation period, Aβ peptides +/− laminin, perlecan, fibronectin or type IV collagen, were added to 1.2 ml of 100 μM Thioflavin T (Sigma Chemical Co., St. Louis, Mo.) in 50 mM phosphate buffer (pH 6.0). Fluorescence emission at 480 nm was measured on a Turner instrument-model 450 fluorometer at an excitation wavelength of 450 nm. For each determination, the fluorometer was calibrated by zeroing in the presence of the Thioflavin T reagent alone, and by seting the 50 ng/ml riboflavin (Sigma Chemical Co., St. Louis, Mo.) in the Thioflavin T reagent to 1800 fluorescence units. All fluorescence determinations were based on these references and any background fluorescence given off by laminin, perlecan, type IV collagen, or fibronectin alone in the presence of the Thioflavin T reagent was always subtracted from all pertinent readings.

[1] = biological target: T2, pre-formed Aβ (1-40) amyloid fibrils (Homo sapiens, UniProt P05067); experiment: Thioflavin T fluorometry, dissolution of pre-formed Aβ (1-40) amyloid fibrils; conditions: for dissolution of pre-formed Aβ amyloid fibrils: 25 μM fibrillized Aβ, 4 day incubation; for dose dependence of dissolution of pre-formed Aβ amyloid fibrils, in words: 16-125 nM laminin, 4 day incubation (FIG. 5)
T2 construct: 2 μg of Aβ (1-40)(Bachem Inc., Torrance, Calif. USA; Lot #WM365); purchased Bachem Inc., Torrance, Calif; Lot #WM365
T2 sequence (P05067 672-711 limits assumed): as above
Experimental: For this study, 1 mg of Aβ (1-40)(Bachem Inc., Torrance, Calif., USA; Lot #WM365) was dissolved in 1.0 ml of double distilled water (1 mg/ml solution) and then incubated at 37° C. for 1 week. 25 μM of fibrillized Aβ was then incubated at 37° C. in the presence or absence of laminin (from EHS tumor; Sigma Chemical Company, St. Louis, Mo., USA) at concentrations of 125 nM, 63 nM, 31 nM and 16 nM containing 150 mM Tris HCl, 10 mM NaCl, pH 7.0. Following a 4 day incubation, 50 μl aliquots were added to 1.2 ml of 100 μM Thioflavin T (Sigma Chemical Co., St. Louis, Mo.) in 50 mM NaPO4 (pH 6.0) for fluorometry readings as described in example 2.

[2] = biological target: T3, islet amyloid polypeptide (amylin) (Homo sapiens, UniProt P10997); experiment: Thioflavin T fluorometry, islet amyloid polypeptide (amylin) fibril formation
T3 construct: The major protein in islet amyloid is a 37 amino acid peptide, termed islet amyloid polypeptide or amylin
T3 sequence (P10997 34-70): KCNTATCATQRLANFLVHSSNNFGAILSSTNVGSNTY

Substance: laminin: Engelbreth-Holm-Swarm (EHS) mouse tumor laminin (Sigma); 850 kDa basement membrane glycoprotein of A, B1 and B2 chains
- dose dependence of inhibition of Aβ fibril formation, in words (Aβ (1-40)): dose-dependent manner; also recorded: Significant dose-dependent inhibition
- dose dependence of inhibition of Aβ fibril formation, in words (Aβ (1-40); listed as Laminin): dose-dependent manner
- fold inhibition of Aβ (1-40) amyloid fibril formation (fluorescence lower than Aβ alone) (Aβ (1-40); 25 μM Aβ (1-40), 100 nM laminin, 1 week (FIG. 2)): 27.1 fold
- fold inhibition of Aβ (1-40) amyloid fibril formation (fluorescence lower than Aβ alone) (Aβ (1-40); 25 μM Aβ (1-40), 100 nM laminin, 1 hour (FIG. 2)): 2.9 fold
- fold inhibition of Aβ (1-40) amyloid fibril formation (fluorescence lower than Aβ alone) (Aβ (1-40); 25 μM Aβ (1-40), 100 nM laminin, 1 day (FIG. 2)): 4.6 fold
- fold inhibition of Aβ (1-40) amyloid fibril formation (fluorescence lower than Aβ alone) (Aβ (1-40); 25 μM Aβ (1-40), 100 nM laminin, 3 days (FIG. 2)): 30.6 fold
- effect on Aβ (1-40) fibrillogenesis, in words (Aβ (1-40); comparison of basement membrane components (FIG. 3), 25 μM Aβ (1-40), 100 nM, 1 hour to 1 week): potent inhibitory effect
- fold decrease of Aβ fibrillogenesis (Aβ (1-40); 25 μM Aβ (1-40), 100 nM, 1 week): 21 fold
- fold decrease of Aβ fibrillogenesis (Aβ (1-40); 25 μM Aβ (1-40), 100 nM, 1 day): 9 fold
- fold decrease of Aβ fibrillogenesis (Aβ (1-40); 25 μM Aβ (1-40), 100 nM, 3 days): 9 fold
- inhibition of Aβ fibril formation, in words (Aβ (1-40); 40 nM laminin): significantly inhibited
- inhibition of Aβ fibril formation, in words (Aβ (1-40); 100 nM laminin, 1 hour, 1 day): significantly inhibited
- dissolution of pre-formed Aβ amyloid fibrils ([1]; 16 nM laminin): 25%
- dissolution of pre-formed Aβ amyloid fibrils ([1]; 31 nM laminin): 28%
- dissolution of pre-formed Aβ amyloid fibrils ([1]; 63 nM laminin): 39%
- dissolution of pre-formed Aβ amyloid fibrils ([1]; 125 nM laminin): 41%
- dose dependence of dissolution of pre-formed Aβ amyloid fibrils, in words [1]: dissolution of pre-formed Alzheimer's disease amyloid fibrils in a dose-dependent manner
- dose dependence of dissolution of pre-formed Aβ amyloid fibrils, in words ([1]; listed as Laminin): dose-dependent manner
- inhibition of amylin fibrillogenesis, in words ([2]; 40 nM, 15 nM and 5 nM laminin, 1 week (FIG. 6)): no significant inhibition
- inhibition of amylin fibril formation, in words ([2]; 100 nM laminin, all time points within 1 week (FIG. 6)): did not significantly inhibit; also recorded: does not significantly inhibit
